# From patent publication US20140242093A1, “METHODS AND COMPOSITIONS FOR MODULATING THE INNATE IMMUNE RESPONSE AND/OR MYOGENESIS IN A MAMMALIAN SUBJECT” (FRED HUTCHINSON CANCER RESEARCH CENTER, priority 2011, published 2014)
# B1: DUX4-s: short splice form of DUX4 (SEQ ID NO:112), keeps the double-homeobox domains, lacks the C-terminal activation domain (protein, listed as Homo sapiens)
# chain: MALPTPSDSTLPAEARGRGRRRRLVWTPSQSEALRACFERNPYPGIATRERLAQAIGIPEPRVQIWFQNERSRQLRQHRRESRPWPGRRGPPEGRRKRTAVTGSQTALLLRAFEKDRFPGIAAREELARETGLPESRIQIWFQNRRARHPGQGGRAPAQV
# System: control human primary myoblasts
# Assay: Expression microarray of primary myoblasts transduced with lentivirus carrying DUX4-fl, DUX4-s or GFP
# Protocol: Primary human myoblasts were collected and cultured as previously described (Snider et al., 2010). Primary myoblasts were maintained at or below 70% confluency for proliferation. For differentiation, cells were allowed to reach 95-100% confluency in growth medium. Once confluency was reached, the cells were changed to differentiation medium (F10 media supplemented with 1% horse serum, 10 μg/mL insulin, and 10 μg/mL transferrin, penicillin/streptomycin) and maintained for 4 days. Human RD cells were grown in DMEM in 10% bovine calf serum (Hyclone) and penicillin/streptomycin. The primary myoblasts were transduced with lentivirus carrying DUX-fl, DUX4- or GFP (MOI=15).
# Expression microarrays were performed on the transduced cells at 24 hours after transduction as follows. […] Samples were analyzed by Illumina Human Whole Genome microarrays. Probe intensities were corrected, normalized, and summarized by the Lumi package of Bioconductor (Du et al., 2008). Differentially expressed genes were identified by the LIMMA package of Bioconductor (Wettenhall and Smyth, 2004). Gene set enrichment analysis (GSEA) was performed using the Bioconductor GOstats package (Falcon and Gentleman, 2007).
molecule,measurement,setting,value
B1,PNMA6B expression fc,Refseq XM_001721351.1,−0.2189
same,LOC100133984 expression fc,Refseq XM_001723079.1,−0.03265
same,LOC649330 expression fc,Refseq XM_001723218.1,−0.2697
same,LOC100128202 expression fc,Refseq XM_001723719.1,−0.1157
same,LOC100130311 expression fc,Refseq XM_001724111.1,0.1436
same,LOC100131539 expression fc,Refseq XM_001724873.1,0.06524
same,LOC100134006 expression fc,Refseq XM_001725030.1,−0.02089
same,LOC730167 expression fc,Refseq XM_001726158.1,1.257
same,LOC100129681 expression fc,"Refseq XM_001726834.1, cultured human skeletal muscle",0.5189
same,LOC651709 expression fc,Refseq XM_001732813.1,0.09445
same,LOC727828 expression fc,Refseq XR_015137.1,−0.00556
same,LOC728060 fc,Refseq XR_015272.2,0.2553
same,LOC732393 expression fc,Refseq XR_015873.1,0.03683
same,MGC40489 expression fc,Refseq XR_016048.1,−0.4604
same,LOC643263 expression fc,Refseq XR_016355.1,−0.133
same,LOC441081 expression fc,Refseq XR_017029.1,0.06023
same,LOC647366 expression fc,Refseq XR_018122.1,−0.003339
same,LOC440041 expression fc,Refseq XR_018122.2,0.021
same,LOC647827 expression fc,Refseq XR_018213.1,−0.05208
same,LOC399988 expression fc,Refseq XR_018287.2,−0.4131
same,LOC650215 fc,Refseq XR_018889.1,0.6386
same,fc of RBMS2P (expression array),Refseq XR_019556.2,1.313
same,LOC642148 expression fc,Refseq XR_019607.1,0.1352
same,LOC650236 expression fc,Refseq XR_036872.1,−0.05945
same,LOC100134322 expression fc,Refseq XR_037416.1,0.1962
same,LOC730974 expression fc,Refseq XR_037751.1,0.02384
same,LOC643445 expression fc,Refseq XR_038080.1,0.07882
same,LOC729516 expression fc,Refseq XR_038445.1,−0.00369
same,LOC340970 expression fc,Refseq XR_038494.1,0.03296
same,LOC645381 expression fc,Refseq XR_038557.1,−0.1266
same,LOC728429 expression fc,Refseq XR_038921.1,−0.02834
same,LOC645638 fc,Refseq XR_040455.1,−0.07113
same,LOC400464 expression fc,Refseq XR_041115.1,−0.07853
same,TRIM53 expression fc,Refseq XR_041244.1,0.07913
same,LOC729009 expression fc,"Refseq XR_042330.1, cultured human skeletal muscle",0.6634
same,ABCC3 expression fc,cultured human skeletal muscle,0.1349
same,ADM expression fc,cultured human skeletal muscle,0.6367
same,AGTRAP expression fc,cultured human skeletal muscle,0.6152
same,AHNAK expression fc,cultured human skeletal muscle,0.163
same,ANGPTL2 expression fc,cultured human skeletal muscle,−0.7837
same,ANKFY1 expression fc,cultured human skeletal muscle,0.09409
same,APOL3 expression fc,cultured human skeletal muscle,0.9777
same,ARHGEF19 expression fc,cultured human skeletal muscle,0.1103
same,ARID3A expression fc,cultured human skeletal muscle,0.2867
same,ASNS expression fc,cultured human skeletal muscle,0.7133
same,ATF5 expression fc,cultured human skeletal muscle,0.5025
same,ATL3 expression fc,cultured human skeletal muscle,1.352
same,BHLHB2 expression fc,cultured human skeletal muscle,0.6222
same,BTG2 expression fc,cultured human skeletal muscle,−0.1242
same,BTN3A2 expression fc,cultured human skeletal muscle,0.3356
same,BTN3A3 expression fc,cultured human skeletal muscle,0.4019
same,C1RL expression fc,cultured human skeletal muscle,−0.1589
same,C4orf18 expression fc,cultured human skeletal muscle,−0.5109
same,C8orf13 expression fc,cultured human skeletal muscle,0.4235
same,C14orf4 expression fc,cultured human skeletal muscle,0.05349
same,C18orf56 expression fc,cultured human skeletal muscle,0.2126
same,CA9 expression fc,cultured human skeletal muscle,0.5237
same,CABC1 expression fc,cultured human skeletal muscle,−0.1757
same,CABYR expression fc,cultured human skeletal muscle,−0.04313
same,CCDC8 expression fc,cultured human skeletal muscle,−0.09225
same,CEBPD expression fc,cultured human skeletal muscle,0.1596
same,CLDN15 expression fc,cultured human skeletal muscle,−0.3718
same,CNTNAP1 expression fc,cultured human skeletal muscle,0.1486
same,COL8A1 expression fc,cultured human skeletal muscle,0.469
same,CRISPLD2 expression fc,cultured human skeletal muscle,−0.45
same,CSF3 expression fc,cultured human skeletal muscle,0.8126
same,CYGB expression fc,cultured human skeletal muscle,0.157
same,CYP26B1 expression fc,cultured human skeletal muscle,0.4149
same,CYP27A1 expression fc,cultured human skeletal muscle,−0.0598
same,DAB2 expression fc,cultured human skeletal muscle,0.1092
same,DCN expression fc,cultured human skeletal muscle,0.2641
same,DDB2 expression fc,cultured human skeletal muscle,0.1073
same,DDIT4 expression fc,cultured human skeletal muscle,0.346
same,DDX60L expression fc,cultured human skeletal muscle,0.6578
same,DKFZp451A211 expression fc,cultured human skeletal muscle,0.3087
same,DNAJB2 expression fc,cultured human skeletal muscle,−0.01635
same,DUSP10 expression fc,cultured human skeletal muscle,−0.3659
same,ERAP2 expression fc,cultured human skeletal muscle,0.7658
same,ESPNL expression fc,cultured human skeletal muscle,−0.2957
same,FADS1 expression fc,cultured human skeletal muscle,0.4186
same,FAM110B expression fc,cultured human skeletal muscle,−0.7651
same,FAM175A expression fc,cultured human skeletal muscle,0.2667
same,FHL2 expression fc,cultured human skeletal muscle,−0.08794
same,FILIP1L expression fc,cultured human skeletal muscle,0.06528
same,FKBP5 expression fc,cultured human skeletal muscle,−0.1027
same,FOXQ1 expression fc,cultured human skeletal muscle,0.6403
same,FPR1 expression fc,cultured human skeletal muscle,0.9327
same,FST expression fc,cultured human skeletal muscle,0.9107
same,FUCA1 expression fc,cultured human skeletal muscle,0.2909
same,GALK1 expression fc,cultured human skeletal muscle,−0.5288
same,GALNTL2 expression fc,cultured human skeletal muscle,0.9881
same,GAS1 expression fc,cultured human skeletal muscle,0.007049
same,GBP4 expression fc,cultured human skeletal muscle,2.337
same,GFPT2 expression fc,cultured human skeletal muscle,0.04945
same,GPX8 expression fc,cultured human skeletal muscle,−0.3321
same,GRINA expression fc,cultured human skeletal muscle,0.4683
same,GSDMD expression fc,cultured human skeletal muscle,0.5738
same,HAS2 expression fc,cultured human skeletal muscle,0.691
same,HCG4 expression fc,cultured human skeletal muscle,0.6838
same,HES4 expression fc,cultured human skeletal muscle,1.068
same,HLA-C expression fc,cultured human skeletal muscle,0.6015
same,HLA-H expression fc,cultured human skeletal muscle,0.327
same,HOXC6 expression fc,cultured human skeletal muscle,−0.1927
same,ID3 expression fc,cultured human skeletal muscle,−0.07117
same,IDH3B expression fc,cultured human skeletal muscle,0.07117
same,IFIT5 expression fc,cultured human skeletal muscle,−0.2831
same,IFITM2 expression fc,cultured human skeletal muscle,0.006726
same,IGFBP5 expression fc,cultured human skeletal muscle,0.178
same,IHPK3 expression fc,cultured human skeletal muscle,−0.09089
same,IL32 expression fc,cultured human skeletal muscle,0.06112
same,IMPA2 expression fc,cultured human skeletal muscle,−0.3411
same,IRAK2 expression fc,cultured human skeletal muscle,0.5116
same,IRAK3 expression fc,cultured human skeletal muscle,1.053
same,ISCU expression fc,cultured human skeletal muscle,0.03975
same,ITPRIP expression fc,cultured human skeletal muscle,0.5516
same,KIAA1618 expression fc,cultured human skeletal muscle,−0.2961
same,KLF6 expression fc,cultured human skeletal muscle,0.6419
same,KRT17 expression fc,cultured human skeletal muscle,0.4585
same,LAP3 expression fc,cultured human skeletal muscle,1.402
same,LIMA1 expression fc,cultured human skeletal muscle,0.2565
same,LOC387763 expression fc,cultured human skeletal muscle,0.2048
same,LOC389386 expression fc,cultured human skeletal muscle,1.37
same,LOC392437 expression fc,cultured human skeletal muscle,0.113
same,LOC653879 expression fc,cultured human skeletal muscle,0.3261
same,LOC728431 expression fc,cultured human skeletal muscle,0.4549
same,MAMDC2 expression fc,cultured human skeletal muscle,−0.02851
same,MAOA expression fc,cultured human skeletal muscle,−0.3759
same,MCEE expression fc,cultured human skeletal muscle,−0.341
same,MGC16121 expression fc,cultured human skeletal muscle,0.01304
same,MIOS expression fc,cultured human skeletal muscle,0.1238
same,MLPH expression fc,cultured human skeletal muscle,0.4233
same,MMP3 expression fc,cultured human skeletal muscle,0.2839
same,MOCOS expression fc,cultured human skeletal muscle,0.4177
same,MOV10 expression fc,cultured human skeletal muscle,0.6869
same,MSC expression fc,cultured human skeletal muscle,0.2529
same,MSI2 expression fc,cultured human skeletal muscle,1.327
same,MT1A expression fc,cultured human skeletal muscle,−0.1212
same,MT2A expression fc,cultured human skeletal muscle,0.08469
same,MUC1 expression fc,cultured human skeletal muscle,0.3508
